From patent US20070071746A1 (AstraZeneca / MedImmune, published 2007) come the findings set out here.

The target of one test is T1, human chitotriosidase (human, UniProt Q13231 22-466).
T1 construct: Recombinant from HEK293; non-tagged versions also made; also called hChT; ChT
Description: ELISA. On the technique in general: An ELISA detects its analyte on a solid surface through an enzyme-linked reagent.

The target in test [1] is T2, Ym2 (mouse, UniProt Q91Z98 22-402).
T2 construct: Recombinant from HEK293; non-tagged versions also made; also called chitinase 3-like 4
Description: ELISA.

The target of test [2] is T3, human AMCase C-terminally truncated, lacking the chitin binding domain (human, UniProt Q9BZP6 22-398, limits assumed).
T3 construct: Biotin labeled in the galectin ELISA; also called hAMCase TR
Description: ELISA.

Test [3] addresses T4, human YKL-39 (human, UniProt Q15782 27-390).
T4 construct: Recombinant from HEK293; non-tagged versions also made; also called hYKL-39; chondrocyte protein 39
T4 sequence: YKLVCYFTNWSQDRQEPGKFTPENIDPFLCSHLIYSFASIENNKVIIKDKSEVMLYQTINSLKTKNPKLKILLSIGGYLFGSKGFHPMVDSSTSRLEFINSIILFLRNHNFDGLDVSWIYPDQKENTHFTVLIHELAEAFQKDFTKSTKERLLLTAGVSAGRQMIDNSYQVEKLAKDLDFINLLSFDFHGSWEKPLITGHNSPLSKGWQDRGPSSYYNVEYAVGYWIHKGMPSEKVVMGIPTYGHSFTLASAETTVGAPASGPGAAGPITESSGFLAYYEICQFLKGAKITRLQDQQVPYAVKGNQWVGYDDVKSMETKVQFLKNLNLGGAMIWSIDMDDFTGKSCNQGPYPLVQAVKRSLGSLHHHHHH
Nature of the test: ELISA.

The target of a further test is T5, mouse chitotriosidase (mouse, UniProt Q9D7Q1 22-464).
T5 construct: Recombinant from HEK293; non-tagged versions also made; also called mChT; mouse ChT
Nature of the test: ELISA.

The target in a further test is T6, Ym1 (mouse, UniProt O35744 22-398).
T6 construct: Recombinant from HEK293; non-tagged versions also made; also called chitinase 3-like 3; ECF-L
Nature of the test: ELISA.

A further test concerns the target T7, human YKL-40 (human, UniProt P36222 22-383).
T7 construct: Recombinant from HEK293; non-tagged versions also made; also called hYKL-40; chitinase 3-like 1
Nature of the test: ELISA.

For test [4], the target named is T8, mouse AMCase truncated form lacking the C-terminal chitin binding domain (mouse, UniProt Q91XA9 22-398, limits assumed).
T8 construct: also called mAMCase TR
Description: ELISA.

Another test concerns the target T9, mouse YKL-40/BRP-39 (mouse, UniProt Q61362 30-389).
T9 construct: Recombinant from HEK293; non-tagged versions also made; also called mYKL40/BRP39; mYKL-40
Description: ELISA.

The target of another test is T10, mouse AMCase D136A (mouse, UniProt Q91XA9 22-473).
T10 construct: Full length point mutant without chitinase activity; also called mAMCase D136A
Description: ELISA; ++ = 1.00 to 2.49 OD at 62.5 ng/ml.

The target in test [5] is T11, mouse acidic mammalian chitinase (AMCase), full length (mouse, UniProt Q91XA9 22-473).
T11 construct: Recombinant, secreted from HEK293 cells and purified by its His tag; Biotin labeled in the galectin ELISA; also called mAMCase; mouse AMCase
Nature of the test: ELISA; + = 0.20 to 0.99 OD at 62.5 ng/ml.

The target in another test is T12, mouse AMCase E140A (mouse, UniProt Q91XA9 22-473).
T12 construct: Full length point mutant without chitinase activity; also called mAMCase E140A
Nature of the test: ELISA; + = 0.20 to 0.99 OD at 62.5 ng/ml.

In test [6] the target is T8, mouse AMCase truncated form lacking the …. Nature of the test: ELISA; ++ = 1.00 to 2.49 OD at 62.5 ng/ml.
In test [7] the target is T11, mouse acidic mammalian chitinase …. Nature of the test: ELISA; ++ = 1.00 to 2.49 OD at 62.5 ng/ml.
The target of test [8] is T2, Ym2. Description: ELISA; + = 0.20 to 0.99 OD at 62.5 ng/ml.
Test [9] concerns the target T4, human YKL-39. Description: ELISA; + = 0.20 to 0.99 OD at 62.5 ng/ml.

T2 sequence (Q91Z98 other isoform, or with tags, fused parts or gaps limits assumed): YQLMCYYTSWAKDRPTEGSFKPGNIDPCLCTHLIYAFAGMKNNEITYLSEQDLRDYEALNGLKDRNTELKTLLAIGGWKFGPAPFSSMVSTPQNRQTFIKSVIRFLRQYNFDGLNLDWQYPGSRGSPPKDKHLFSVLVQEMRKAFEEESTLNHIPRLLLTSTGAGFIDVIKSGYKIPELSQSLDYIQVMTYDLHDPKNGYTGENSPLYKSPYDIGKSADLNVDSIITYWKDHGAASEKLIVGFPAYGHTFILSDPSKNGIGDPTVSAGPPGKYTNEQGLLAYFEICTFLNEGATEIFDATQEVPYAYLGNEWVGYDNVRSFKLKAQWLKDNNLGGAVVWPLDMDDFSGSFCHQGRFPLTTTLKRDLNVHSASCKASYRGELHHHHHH
T12 sequence (Q91XA9 22-473 E140A limits assumed): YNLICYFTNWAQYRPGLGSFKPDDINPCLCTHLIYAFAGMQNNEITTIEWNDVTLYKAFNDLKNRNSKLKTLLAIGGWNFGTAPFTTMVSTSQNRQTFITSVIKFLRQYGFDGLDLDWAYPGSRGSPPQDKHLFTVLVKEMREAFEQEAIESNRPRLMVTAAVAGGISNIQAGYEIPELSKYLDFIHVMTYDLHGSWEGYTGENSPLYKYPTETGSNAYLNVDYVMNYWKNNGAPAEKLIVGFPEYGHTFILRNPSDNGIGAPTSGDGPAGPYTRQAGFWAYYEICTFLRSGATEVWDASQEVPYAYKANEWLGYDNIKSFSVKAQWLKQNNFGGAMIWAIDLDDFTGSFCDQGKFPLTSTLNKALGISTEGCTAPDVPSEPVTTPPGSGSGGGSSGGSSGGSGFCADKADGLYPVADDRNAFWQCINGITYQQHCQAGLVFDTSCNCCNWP
T8 sequence (Q91XA9 22-398 limits assumed): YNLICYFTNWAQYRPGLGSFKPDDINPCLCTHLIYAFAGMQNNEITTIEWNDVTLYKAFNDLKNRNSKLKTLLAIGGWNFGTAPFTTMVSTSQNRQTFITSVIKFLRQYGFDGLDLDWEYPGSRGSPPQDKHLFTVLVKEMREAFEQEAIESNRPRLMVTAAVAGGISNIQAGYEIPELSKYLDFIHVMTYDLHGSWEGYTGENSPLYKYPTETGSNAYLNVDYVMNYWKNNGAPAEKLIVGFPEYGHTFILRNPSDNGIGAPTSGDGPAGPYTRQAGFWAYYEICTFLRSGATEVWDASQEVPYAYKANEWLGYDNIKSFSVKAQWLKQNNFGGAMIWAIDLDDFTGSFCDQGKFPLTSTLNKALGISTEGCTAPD
T7 sequence (P36222 other isoform, or with tags, fused parts or gaps limits assumed): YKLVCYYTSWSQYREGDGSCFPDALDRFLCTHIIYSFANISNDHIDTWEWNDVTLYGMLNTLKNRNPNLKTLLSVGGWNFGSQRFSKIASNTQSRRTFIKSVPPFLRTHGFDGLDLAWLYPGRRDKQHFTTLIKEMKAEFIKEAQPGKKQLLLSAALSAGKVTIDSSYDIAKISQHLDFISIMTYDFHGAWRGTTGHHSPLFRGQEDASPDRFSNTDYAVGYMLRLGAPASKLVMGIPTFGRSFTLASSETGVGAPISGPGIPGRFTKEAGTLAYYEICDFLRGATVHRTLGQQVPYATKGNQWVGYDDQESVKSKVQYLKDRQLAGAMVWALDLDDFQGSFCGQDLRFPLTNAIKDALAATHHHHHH
T9 sequence (Q61362 other isoform, or with tags, fused parts or gaps limits assumed): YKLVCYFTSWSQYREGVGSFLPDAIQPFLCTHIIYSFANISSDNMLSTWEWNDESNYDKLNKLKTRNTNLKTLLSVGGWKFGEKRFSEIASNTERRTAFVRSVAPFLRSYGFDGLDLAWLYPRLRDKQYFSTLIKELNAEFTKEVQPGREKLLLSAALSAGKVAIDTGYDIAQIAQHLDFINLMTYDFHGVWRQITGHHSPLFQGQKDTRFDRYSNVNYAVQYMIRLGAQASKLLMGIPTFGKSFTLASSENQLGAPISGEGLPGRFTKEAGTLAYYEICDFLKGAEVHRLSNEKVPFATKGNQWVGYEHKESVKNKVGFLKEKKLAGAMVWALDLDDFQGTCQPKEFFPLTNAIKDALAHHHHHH
T11 sequence (Q91XA9 other isoform, or with tags, fused parts or gaps limits assumed): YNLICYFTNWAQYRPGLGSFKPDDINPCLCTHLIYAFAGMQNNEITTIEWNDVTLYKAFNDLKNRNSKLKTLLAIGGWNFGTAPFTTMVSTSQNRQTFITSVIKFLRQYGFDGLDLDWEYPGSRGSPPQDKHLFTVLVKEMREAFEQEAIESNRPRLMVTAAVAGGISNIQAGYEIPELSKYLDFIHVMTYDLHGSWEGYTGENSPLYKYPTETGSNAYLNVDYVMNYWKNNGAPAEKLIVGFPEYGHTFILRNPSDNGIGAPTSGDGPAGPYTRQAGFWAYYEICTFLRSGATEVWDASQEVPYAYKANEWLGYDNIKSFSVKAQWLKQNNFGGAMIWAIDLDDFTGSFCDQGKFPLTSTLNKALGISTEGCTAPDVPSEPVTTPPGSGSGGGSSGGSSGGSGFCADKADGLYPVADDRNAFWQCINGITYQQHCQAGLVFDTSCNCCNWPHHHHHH
T3 sequence (Q9BZP6 22-398 limits assumed): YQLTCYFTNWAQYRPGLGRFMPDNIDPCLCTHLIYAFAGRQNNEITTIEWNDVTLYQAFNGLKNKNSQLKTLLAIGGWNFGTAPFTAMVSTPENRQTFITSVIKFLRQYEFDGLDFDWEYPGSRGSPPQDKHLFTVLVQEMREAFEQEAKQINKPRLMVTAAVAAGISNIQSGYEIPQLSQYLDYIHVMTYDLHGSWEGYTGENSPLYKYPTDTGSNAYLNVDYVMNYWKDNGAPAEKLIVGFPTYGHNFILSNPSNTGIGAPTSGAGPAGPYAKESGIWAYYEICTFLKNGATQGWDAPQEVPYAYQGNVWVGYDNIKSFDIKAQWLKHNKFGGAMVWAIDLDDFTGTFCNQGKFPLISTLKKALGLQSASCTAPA
T6 sequence (O35744 other isoform, or with tags, fused parts or gaps limits assumed): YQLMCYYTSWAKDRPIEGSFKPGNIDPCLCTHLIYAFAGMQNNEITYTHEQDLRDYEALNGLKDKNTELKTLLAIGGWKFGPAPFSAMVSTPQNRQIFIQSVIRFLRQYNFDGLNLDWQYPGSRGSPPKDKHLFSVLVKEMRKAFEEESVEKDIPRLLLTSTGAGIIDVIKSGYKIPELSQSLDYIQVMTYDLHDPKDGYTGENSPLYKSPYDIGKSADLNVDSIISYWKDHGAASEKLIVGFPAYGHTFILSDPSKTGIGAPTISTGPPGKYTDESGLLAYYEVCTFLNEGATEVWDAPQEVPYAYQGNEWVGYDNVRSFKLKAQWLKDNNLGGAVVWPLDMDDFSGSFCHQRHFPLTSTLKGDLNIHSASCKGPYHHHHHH
T5 sequence (Q9D7Q1 other isoform, or with tags, fused parts or gaps limits assumed): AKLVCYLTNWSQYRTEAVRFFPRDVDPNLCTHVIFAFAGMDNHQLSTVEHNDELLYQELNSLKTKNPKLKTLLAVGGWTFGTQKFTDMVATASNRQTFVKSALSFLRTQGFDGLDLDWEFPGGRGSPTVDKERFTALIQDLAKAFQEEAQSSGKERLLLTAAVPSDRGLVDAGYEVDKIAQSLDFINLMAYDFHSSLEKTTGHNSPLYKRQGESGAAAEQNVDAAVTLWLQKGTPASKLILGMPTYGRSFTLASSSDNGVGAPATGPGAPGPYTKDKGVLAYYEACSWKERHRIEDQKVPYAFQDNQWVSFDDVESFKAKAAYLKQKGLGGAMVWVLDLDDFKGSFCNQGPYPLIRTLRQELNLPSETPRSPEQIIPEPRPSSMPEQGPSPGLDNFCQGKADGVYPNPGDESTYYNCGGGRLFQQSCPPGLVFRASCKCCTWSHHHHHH
T10 sequence (Q91XA9 22-473 D136A limits assumed): as the sequence (Q91XA9 22-473 E140A limits assumed) above, with D115A, A119E counted along it
T1 sequence (Q13231 other isoform, or with tags, fused parts or gaps limits assumed): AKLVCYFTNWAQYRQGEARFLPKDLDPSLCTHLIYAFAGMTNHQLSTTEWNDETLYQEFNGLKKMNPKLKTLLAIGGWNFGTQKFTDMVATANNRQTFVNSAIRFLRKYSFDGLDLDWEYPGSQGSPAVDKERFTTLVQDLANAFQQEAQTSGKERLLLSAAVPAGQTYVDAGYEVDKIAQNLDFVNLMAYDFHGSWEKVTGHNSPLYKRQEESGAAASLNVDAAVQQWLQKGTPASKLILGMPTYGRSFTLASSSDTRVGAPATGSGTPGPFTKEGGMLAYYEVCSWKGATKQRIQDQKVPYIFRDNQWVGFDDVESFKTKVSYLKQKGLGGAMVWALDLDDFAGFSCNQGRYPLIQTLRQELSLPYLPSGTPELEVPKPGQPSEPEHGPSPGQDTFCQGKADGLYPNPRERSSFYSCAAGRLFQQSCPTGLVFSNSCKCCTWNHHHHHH

B1: Z8 (antibody, V domains shown)
VH: EVQLLESGGGLVQPGGSLRLSCAASGFTFSPYLMWWVRQAPGKGLEWVSYISSSGGYTSYADSVKGRFTISRDNSKNTLYLQMNSLRAEDTAMYYCARMYYYDSSGYPSFDYWGQGTLVTVSS
VL: QSALTQPPSASGTPGQRVTISCSGSGSNIGSNTVNWYQQLPGTAPKLLIYSSNQRPSGVSDRFSGSKSVASASLAINGLQSEDEADYYCAGWDDSLNGPVFGGGTKLTVL
notes: Fully human anti-AMCase antibody from phage display, converted to full length IgG
With B1, the binding result (in the test with human chitotriosidase; in the test with Ym2 [1]; in test [2]; with human YKL-39 [3]; with mouse chitotriosidase; with Ym1) was “no binding” in each case. The binding result (with human YKL-40; in test [4]; with mouse YKL-40/BRP-39) was “no binding” in each case. The entries for the “ELISA OD at 62.5 ng/ml antibody” value (with mouse AMCase D136A; in test [5]; with mouse AMCase E140A) were 1 to 2.49 od, 0.2 to 0.99 od and 0.2 to 0.99 od, respectively.

B2: Z1 (antibody, V domains shown)
VH: EVQLLESGGGLVQPGGSLRLSCAASGFTFSFYRMAWVRQAPGKGLEWVSRISSSGGPTMYADSVKGRFTISRDNSKNTLYLQMNSLRAEDTAVYYCTTEKQYAGVTFESWGQGTLVTVSS
VL: DIQMTQSPATLSLSPGERATLSCRASQSVSSYLAWYQQKPGQAPRLLIYDASNRATGIPARFSGSGSGTDFTLTISSLEPEDFAVYYCQQRSNSPTFGGGTKVEIK
notes: as for B1
As to B2, the binding result with human YKL-40 is listed as “no binding”; in the test with mouse YKL-40/BRP-39 it was “no binding”; with Ym2 [8] it was “binds”. The “ELISA OD at 62.5 ng/ml antibody” value in test [6] was in the range of 1 to 2.49 od; in test [7], 1 to 2.49 od; in the test with human YKL-39 [9] it was 0.2 to 0.99 od; with mouse AMCase E140A, 0.2 to 0.99 od.
